Here are results for one molecule from paper PMC3397946, “Identification and Characterization of the Cognate Anti-Sigma Factor and Specific Promoter Elements of a T. tengcongensis ECF Sigma Factor”.

For data set [1], the target named is T1, Tt-TolB-C (Thermoanaerobacter tengcongensis MB4T, UniProt Q8RCT8 62-645).
T1 sequence: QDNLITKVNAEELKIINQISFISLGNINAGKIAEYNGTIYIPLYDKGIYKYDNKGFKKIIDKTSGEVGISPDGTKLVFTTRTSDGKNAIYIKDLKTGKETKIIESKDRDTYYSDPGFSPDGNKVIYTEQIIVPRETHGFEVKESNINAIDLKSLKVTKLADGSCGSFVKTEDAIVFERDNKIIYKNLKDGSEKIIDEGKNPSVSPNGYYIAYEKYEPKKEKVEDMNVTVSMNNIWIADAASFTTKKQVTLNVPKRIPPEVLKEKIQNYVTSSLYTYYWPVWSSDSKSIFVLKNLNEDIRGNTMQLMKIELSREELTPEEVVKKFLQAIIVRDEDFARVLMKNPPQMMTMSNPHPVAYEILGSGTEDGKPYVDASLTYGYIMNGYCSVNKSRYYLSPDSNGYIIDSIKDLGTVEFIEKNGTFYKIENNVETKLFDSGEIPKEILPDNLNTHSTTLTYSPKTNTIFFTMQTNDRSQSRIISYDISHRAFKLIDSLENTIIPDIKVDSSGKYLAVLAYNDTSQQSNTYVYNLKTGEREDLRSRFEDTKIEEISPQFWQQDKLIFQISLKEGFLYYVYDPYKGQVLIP
In words: EMSA; 5 uM, alone; 50 mM Tris-HCl pH 8.0, 10 mM MgAc2, 30 mM NaCl, 1 mM DTT, 5% glycerol, 30 ug/ml BSA, 0.5 mM EDTA, 1 ug poly(dI-dC), 20 fmol probe in 20 ul, 25 C, 20 min. As to conditions: protein: recombinant; tags: His (pET28a); label: 5'-32P top strand; fork: top 3' overhang 10 nt.

Data set [2] deals with T2, Tt-TolB (Thermoanaerobacter tengcongensis MB4T, UniProt Q8RCT8 1-645).
T2 sequence: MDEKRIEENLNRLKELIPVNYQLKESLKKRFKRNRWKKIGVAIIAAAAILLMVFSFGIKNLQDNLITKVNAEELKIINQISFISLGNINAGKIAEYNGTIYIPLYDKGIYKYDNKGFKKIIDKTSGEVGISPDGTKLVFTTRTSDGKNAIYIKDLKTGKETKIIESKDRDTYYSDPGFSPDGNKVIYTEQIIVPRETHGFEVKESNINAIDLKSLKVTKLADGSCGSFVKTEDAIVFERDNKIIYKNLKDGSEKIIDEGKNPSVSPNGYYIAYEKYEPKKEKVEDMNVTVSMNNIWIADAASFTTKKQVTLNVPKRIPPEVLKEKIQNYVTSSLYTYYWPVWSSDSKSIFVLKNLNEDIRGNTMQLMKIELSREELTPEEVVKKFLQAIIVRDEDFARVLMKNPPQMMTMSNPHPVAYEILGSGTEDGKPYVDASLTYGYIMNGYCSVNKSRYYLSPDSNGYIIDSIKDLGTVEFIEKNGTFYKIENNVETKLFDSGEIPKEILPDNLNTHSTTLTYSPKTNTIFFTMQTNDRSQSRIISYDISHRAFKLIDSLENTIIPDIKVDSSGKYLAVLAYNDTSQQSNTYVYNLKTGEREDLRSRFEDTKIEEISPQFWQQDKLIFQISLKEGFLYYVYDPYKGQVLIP
The data set is described as above. As to conditions: protein: recombinant; tags: His (pET28a); label: 5'-32P top strand; fork: top 3' overhang 10 nt.

Data set [3] deals with T3, Tt-RpoE1 (Thermoanaerobacter tengcongensis MB4T, UniProt Q8RCT7 1-162).
T3 sequence: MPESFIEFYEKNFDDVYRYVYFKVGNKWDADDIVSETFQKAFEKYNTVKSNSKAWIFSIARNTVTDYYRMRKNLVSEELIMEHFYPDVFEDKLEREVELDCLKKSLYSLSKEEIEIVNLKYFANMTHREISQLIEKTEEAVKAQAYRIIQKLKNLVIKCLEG
Nature of the data set: EMSA; 5 uM protein; 50 mM Tris-HCl pH 8.0, 10 mM MgAc2, 30 mM NaCl, 1 mM DTT, 5% glycerol, 30 ug/ml BSA, 0.5 mM EDTA, 1 ug poly(dI-dC), 20 fmol probe in 20 ul, 25 C, 20 min. As to conditions: protein: recombinant; tags: His (pET28a); label: 5'-32P top strand; fork: top 3' overhang 10 nt.

Data set [4] has as its target T4, Tt-RpoE1;Tt-TolB (Thermoanaerobacter tengcongensis …, UniProt Q8RCT7;Q8RCT8 1-162;1-645, |).
T4 sequence 1: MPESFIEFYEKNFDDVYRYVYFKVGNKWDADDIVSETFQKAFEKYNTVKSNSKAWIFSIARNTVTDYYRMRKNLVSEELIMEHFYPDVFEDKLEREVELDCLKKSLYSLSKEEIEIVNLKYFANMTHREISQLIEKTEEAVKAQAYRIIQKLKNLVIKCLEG
T4 sequence 2: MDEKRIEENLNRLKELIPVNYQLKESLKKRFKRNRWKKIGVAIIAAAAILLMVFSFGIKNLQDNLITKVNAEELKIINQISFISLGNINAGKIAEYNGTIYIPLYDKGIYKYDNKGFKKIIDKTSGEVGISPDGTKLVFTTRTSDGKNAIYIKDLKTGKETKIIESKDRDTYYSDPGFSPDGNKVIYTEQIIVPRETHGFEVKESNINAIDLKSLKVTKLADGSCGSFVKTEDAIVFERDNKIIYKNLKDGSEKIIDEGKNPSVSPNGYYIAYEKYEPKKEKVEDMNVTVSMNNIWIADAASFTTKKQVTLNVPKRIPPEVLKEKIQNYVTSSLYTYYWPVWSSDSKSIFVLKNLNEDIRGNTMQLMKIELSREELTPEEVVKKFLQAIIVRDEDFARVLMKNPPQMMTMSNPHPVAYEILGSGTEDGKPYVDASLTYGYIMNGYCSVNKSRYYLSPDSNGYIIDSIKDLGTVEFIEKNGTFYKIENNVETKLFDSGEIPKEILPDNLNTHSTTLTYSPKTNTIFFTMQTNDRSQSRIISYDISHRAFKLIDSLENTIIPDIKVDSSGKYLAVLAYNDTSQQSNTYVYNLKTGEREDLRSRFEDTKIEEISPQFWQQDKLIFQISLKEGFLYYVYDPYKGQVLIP
In words: EMSA; 5 uM each; supershifted complex; 50 mM Tris-HCl pH 8.0, 10 mM MgAc2, 30 mM NaCl, 1 mM DTT, 5% glycerol, 30 ug/ml BSA, 0.5 mM EDTA, 1 ug poly(dI-dC), 20 fmol probe in 20 ul, 25 C, 20 min. As to conditions: protein: recombinant;recombinant; tags: His (pET28a);His (pET28a); label: 5'-32P top strand; fork: top 3' overhang 10 nt. On the technique in general: In EMSA bound probe runs differently from free probe, usually more slowly.

B1: T+1/B-10 (dsDNA)
DNA 1: GGTATTGTTACCTTTTGTGTAGATTTTCGTCTATAAAGGTG
DNA 2: GACGAAAATCTACACAAAAGGTAACAATACC
For the molecule B1, the binding result in data set [1] was “no binding”; in data set [2], “no binding”; in data set [3], “binds”; in data set [4], “binds”.
